In US20260139240A1:

Tests used:
[1] = target: Human α1-acid glycoprotein (AGP) (human) (UniProt P02763); assay: SPR (Biacore T100), SubB immobilised
[2] = target: Human α1-acid glycoprotein (AGP) (human) (UniProt P02763); assay: SPR (Biacore […]), […], single cycle kinetics

Wild type SubB (subtilase cytotoxin B subunit) (from UniProt Q6EZC3 24-141) (other; other documents disagree on this pair)
fold reduced binding affinity compared to bovine AGP [1]: 13 fold | Kd [2]: 2.12 µM
